Source: PMC7752801

Target: streptolysin O (SLO) isolated from group A Streptococcus (Streptococcus pyogenes (group A Streptococcus)) (UniProt P0C0I3)
Assay: other fluorescence titration; SLO at 2.0×10^−8 M mixed with HSA from 0 M to 4.0×10^−8 M; fluorescence between 300 nm and 400 nm, excitation 280; apparent Kd from Eq. 1

UniProt P0C0I3, sequence (P0C0I3 34-571): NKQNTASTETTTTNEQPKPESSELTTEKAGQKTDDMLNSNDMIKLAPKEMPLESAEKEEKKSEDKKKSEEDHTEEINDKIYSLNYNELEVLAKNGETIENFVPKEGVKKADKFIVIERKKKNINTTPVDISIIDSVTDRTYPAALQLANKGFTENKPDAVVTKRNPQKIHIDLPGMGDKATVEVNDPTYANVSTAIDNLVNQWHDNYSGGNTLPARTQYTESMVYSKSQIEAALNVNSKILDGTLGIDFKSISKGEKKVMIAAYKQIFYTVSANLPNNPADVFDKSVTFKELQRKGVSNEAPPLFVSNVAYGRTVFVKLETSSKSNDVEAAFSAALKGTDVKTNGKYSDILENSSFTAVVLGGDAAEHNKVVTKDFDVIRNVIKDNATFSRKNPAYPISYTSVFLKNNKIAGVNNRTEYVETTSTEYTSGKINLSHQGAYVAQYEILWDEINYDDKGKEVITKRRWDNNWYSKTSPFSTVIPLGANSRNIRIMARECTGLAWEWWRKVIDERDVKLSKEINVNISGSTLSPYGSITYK

“L305A/F374A 6×His-tag-HSA (double mutant Leu305Ala/Phe374Ala) (natural protein)” gave a Kd of 7.3 nM.
